Target: streptavidin (recombinant, with Ni-affinity tag) (UniProt P22629)
Test: PLISA on immobilized streptavidin, binding through biotin

streptavidin (recombinant, with Ni-affinity tag), sequence (P22629 37-163 limits assumed): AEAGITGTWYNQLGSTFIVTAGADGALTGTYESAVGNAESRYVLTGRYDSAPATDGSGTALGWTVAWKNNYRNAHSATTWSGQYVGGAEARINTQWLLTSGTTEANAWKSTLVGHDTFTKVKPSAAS

biotinylated form of M13LuxABElink-SompbioVII3 (luciferase-encoding M13 phage exposing a biotinylated BirA-substrate polypeptide as part of capsid protein VII) (from UniProt P69533 1-33)
smallest amount of streptavidin detected (pg loaded in the well): 1

— patent publication US20170067044A1
